# Measurements: publication PMC6017673, “Functional Characterization of the Saccharomyces cerevisiae Equilibrative Nucleoside Transporter 1 (ScENT1)” (Molecules : A Journal of Synthetic Chemistry and Natural …, 2018)
# Columns and labels:
# Test in all cases: purified protein
# [1] = substrate: Nc1ccn([C@@H]2O[C@H](CO)[C@@H](O)[C@H]2O)c(=O)n1; conditions: labelled compound; purified transporter in proteoliposomes
# [2] = substrate: O=c1ccn([C@@H]2O[C@H](CO)[C@@H](O)[C@H]2O)c(=O)[nH]1; format: biochemical, Saccharomyces cerevisiae; conditions: labelled compound; purified transporter in proteoliposomes
# [3] = substrate: O=c1ccn([C@@H]2O[C@H](COP(=O)(O)OP(=O)(O)OP(=O)(O)O)[C@@H](O)[C@H]2O)c(=O)[nH]1; format: biochemical, Saccharomyces cerevisiae; conditions: labelled compound, purified transporter in proteoliposomes
Protein,Km [1] [µM],Km [2] [µM],Km [3] [µM],"Km ([3]; extrapolated beyond tested concentrations, not saturated) [µM]"
"ScENT1 (FUN26) (Saccharomyces cerevisiae S288C) (protein, full-length, poly-His tagged (TALON, SEC), overexpressed in S. cerevisiae W303-delta-pep4, DDM-solubilised, reconstituted in proteoliposomes) MSTSADTDTIKKPILAVPEPALADTHSEEISRSGEEHESENNEHSDEEGDNYSEREQSVSTEPLDTLPLRKKLKNLSYITFFAIGIGLLWPWNCILSASQYFKHDIFKDTSIWAKIFTSSMMSFSTISSMLFNIYLAKRQYKYSRRVINGLVWEIIVFTVMCFFTILHFLLPKWFNFMFIMMLVVISSMGTAMTQNGIMAIANVFGSEYSQGVMVGQAVAGVLPSLVLFALAFIENSSVSTTGGILLYFFTTTLVVTICVVMFSVSKISRKVNENWNVEDGHITDVLLGSLRSNEEEIRIVGRIDQMEDEDHRRTNGTRDDNDEGEELQLKVPFEVLFAKLKYLVLSIFTTFVVTLVFPVFASATYVTGLPLSNAQYIPLIFTLWNLGDLYGRVIADWPMFRDQKFTPRKTFIYSLLRVAAIPLFLMFTAITSSSSGDEEHNGSVIVDLCYMLLQFLFGVTNGHVISMSFMKVPEQLDNDDEKEAAGGFTNIFVSTGLALGSIISYVFVFIIDFIIR",0.195,0.327,–,–
"ScENT1 (FUN26) (Saccharomyces cerevisiae S288C; F249I) (protein, full-length, poly-His tagged (TALON, SEC), overexpressed in S. cerevisiae W303-delta-pep4, DDM-solubilised, reconstituted in proteoliposomes) MSTSADTDTIKKPILAVPEPALADTHSEEISRSGEEHESENNEHSDEEGDNYSEREQSVSTEPLDTLPLRKKLKNLSYITFFAIGIGLLWPWNCILSASQYFKHDIFKDTSIWAKIFTSSMMSFSTISSMLFNIYLAKRQYKYSRRVINGLVWEIIVFTVMCFFTILHFLLPKWFNFMFIMMLVVISSMGTAMTQNGIMAIANVFGSEYSQGVMVGQAVAGVLPSLVLFALAFIENSSVSTTGGILLYIFTTTLVVTICVVMFSVSKISRKVNENWNVEDGHITDVLLGSLRSNEEEIRIVGRIDQMEDEDHRRTNGTRDDNDEGEELQLKVPFEVLFAKLKYLVLSIFTTFVVTLVFPVFASATYVTGLPLSNAQYIPLIFTLWNLGDLYGRVIADWPMFRDQKFTPRKTFIYSLLRVAAIPLFLMFTAITSSSSGDEEHNGSVIVDLCYMLLQFLFGVTNGHVISMSFMKVPEQLDNDDEKEAAGGFTNIFVSTGLALGSIISYVFVFIIDFIIR",0.452,–,0.13,–
"ScENT1 (FUN26) (Saccharomyces cerevisiae S288C; L390A) (protein, full-length, poly-His tagged (TALON, SEC), overexpressed in S. cerevisiae W303-delta-pep4, DDM-solubilised, reconstituted in proteoliposomes) MSTSADTDTIKKPILAVPEPALADTHSEEISRSGEEHESENNEHSDEEGDNYSEREQSVSTEPLDTLPLRKKLKNLSYITFFAIGIGLLWPWNCILSASQYFKHDIFKDTSIWAKIFTSSMMSFSTISSMLFNIYLAKRQYKYSRRVINGLVWEIIVFTVMCFFTILHFLLPKWFNFMFIMMLVVISSMGTAMTQNGIMAIANVFGSEYSQGVMVGQAVAGVLPSLVLFALAFIENSSVSTTGGILLYFFTTTLVVTICVVMFSVSKISRKVNENWNVEDGHITDVLLGSLRSNEEEIRIVGRIDQMEDEDHRRTNGTRDDNDEGEELQLKVPFEVLFAKLKYLVLSIFTTFVVTLVFPVFASATYVTGLPLSNAQYIPLIFTLWNLGDAYGRVIADWPMFRDQKFTPRKTFIYSLLRVAAIPLFLMFTAITSSSSGDEEHNGSVIVDLCYMLLQFLFGVTNGHVISMSFMKVPEQLDNDDEKEAAGGFTNIFVSTGLALGSIISYVFVFIIDFIIR",–,0.215,–,2.92
